In patent US20130209439A1, “INHIBITORS OF PDE4 BINDING TO HSP20” (THE UNIVERSITY COURT OF THE UNIVERSITY OF GLASGOW, priority 2010, published 2013):
Where no end group is shown, it is not given here.

Key:
PDE4D5-HSP20 complex = target: T1, PDE4D5-HSP20 complex (Homo sapiens, UniProt O14558); experiment: Immunoprecipitation of HSP20 probed for PDE4D5, HEK293 cell lysate; type: binding; conditions: HEK293 cells transfected with HSP20 and PDE4D5, increasing peptide concentrations
T1 construct: containing the open reading frame of Hsp20 in pENTR221 vector, was used to generate pcDNA6.2-Hsp20; expressed in transfected cells; host or cells: HEK293 cells
T1 sequence (O14558 1-160): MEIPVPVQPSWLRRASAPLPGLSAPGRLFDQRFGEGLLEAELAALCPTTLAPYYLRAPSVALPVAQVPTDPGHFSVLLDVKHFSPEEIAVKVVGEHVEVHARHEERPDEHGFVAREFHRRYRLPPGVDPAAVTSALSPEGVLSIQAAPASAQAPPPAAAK
From the text: (§1) FIG. 6. Peptide disruption of the PDE4D-HSP20 complex promotes PKA phosphorylation on Ser16. A, Upper panel. HEK293 cells were transfected with HSP20 and PDE4D5. Immunoprecipitation of HSP20 done in the presence increasing concentrations of Peptide 906 (SEQ ID NO: 36) and Peptide control (SEQ ID NO: 37) were probed for PDE4D5. Lower panel. Densitometric analysis of amount of PDE4D5 in HSP20 immunoprecipitates normalised to expression level. Data representative of n=3. B, Purified preparations of HSP20-His and PDE4D5-GST were subject to an ELISA assay containing increasing amounts of ‘Peptide 906’ and ‘peptide control’. C, Upper panel, HSP20 was transfected into HEK293 cells and treated with ‘Peptide 906’ for indicated times. Cellular lysates were blotted for HSP20 and phospho-HSP20. Middle panel, HSP20 was transfected into HEK293 cells and treated with ‘Peptide 906’ or ‘peptide control’ for indicated times. Cellular lysates were blotted for HSP20 and phospho-HSP20. Lower panel, Densitometric analysis of phosphorylation of HSP20 normalised to expression level (n=3).
(§2) HEK293B2 cells are a stable cell line overexpressing the GFP-tagged β2AR were cultured as previously described^48. […] Protein concentration of lysates were determined using the Bradford assay and all samples were equalised for protein concentration. […]

His-HSP20 / GST-PDE4D5 = target: T2, His-HSP20 / GST-PDE4D5 (Homo sapiens, UniProt O14558); experiment: Hsp20/PDE4D5 ELISA assay with purified proteins; type: binding; conditions: increasing amounts of peptide
T2 construct: made in house; host or cells: E. coli (BL21 for His-Hsp20)
T2 sequence (O14558 1-160): T1 sequence (O14558 1-160)
From the text: as §1
His-HSP20 and GST-PDE4D5 were purified as previously described. […] Plates were read as soon as possible using the luminescence program on a Packard Fusion plate reader (1 s reading per well). […]

[1] = system: phospho-HSP20 in HEK293 cells; experiment: HSP20 Ser16 phosphorylation in HSP20-transfected HEK293 cells treated with peptide; type: cell-based; conditions: 10 μM peptide, 0-120 min
From the text: as §1
PolyFect transfection reagent was from Qiagen. […]
as §2

[2] = system: neonatal cardiac myocytes; experiment: Cardiac myocyte cell size, manual cross-sectional area; type: cell-based, rat; conditions: 24 hour isoprenaline 10 μM, 30 min pre-treatment with 10 μM peptide
Description: FIG. 7. Peptide disruption of the PDE4D-HSP20 complex attenuates the hypertrophic response triggered by constant […]-agonist treatment. A, Upper panel. The area covered by isolated cardiac myocytes was used as a measure of cell size. Lower panel, Graphical depiction of the mean areas (N=100) of cells following 24 hours of indicated treatments. B, impedance measurements were used to calculate continuous normalised cell index using exCELLigence technology Normalised mean (n=4) cell index after 24 hours of indicated treatments.
Cardiomyocytes were plated out on gelatin (Sigma) pre-coated 6-well plates and placed in an incubator at 37° C. and an atmosphere of 5% CO2. After 24 h the cardiomyocytes were cultured in a serum-free condition for 48 h before experiments. The cardiomyocytes were then challenged for 24 h with either 10 μM isoprenaline alone or isoprenaline following a 30 min pre-treatment with 10 μM rolipram, 10 μM bs906 or 10 μM control peptide. Thereafter, cell size was determined on phase-contrast microscope. […] from randomly selected microscope images (400×) were captured digitally and analysed. Cross-sectional area was determined by the following formula: cross-sectional area=(radius)^2×π. Values are expressed as means±SE of five separate culture preparations. A f-test was performed to compare the two groups, and the P values are indicated.

Peptide 906: stearoylated, cell-permeable disrupter peptide of PDE4D5 residues E468-K492 (SEQ ID NO: 36) (ENHHLAVGFKLLQEENSDIFQNLTK; also: stearoylated, site not given here)
association between PDE4D5 and HSP20 in immunoprecipitation from cellular lysate (PDE4D5-HSP20 complex): attenuated the association between PDE4D5 and HSP20
association between PDE4D5 and HSP20 in ELISA with purified proteins (His-HSP20 / GST-PDE4D5): attenuated the association between PDE4D5 and HSP20
phosphorylation of HSP20 at Ser16 [1]: robust and significant increase in the phosphorylation of HSP20 at Ser16
cell size (cross-sectional area) of cardiac myocytes [2]: could be rescued
